Assay results: patent US20260234262A1

Molecular target: Target 2 (canine examples 1 to 4) (canine)
Assay: SPR, Biacore T200; antibody captured on anti-canine coupled CM5 chip, antigen in solution, 1:1 fit

B1: 02F09R3-Fc (Fc fusion)
chain: QVQLVESGGGLVQAGGSLRLSCVASGSTFSNLVMAWYRQAPGKQREWVARISLAGNTIYADSVKGRFTISRDNAKNTVYLQMNSLKIEDTAVYYCSRGGVDWGQGTQVTVSSGPGGQVPKRENGRVPRPPDCPKCPAPEAAGGPSVFIFPPKPKDTLLIARTPEVTCVVVDLDPEDPEVQISWFVDGKQMQTAKTQPREEQFNGTYRVVSVLPIGHQDWLKGKQFTCKVNNKALPSPIERTISKARGQAHQPSVYVLPPSREELSKNTVSLTCLIKDFFPPDIDVEWQSNGQQEPESKYRTTPPQLDEDGSYFLYSKLSVDKSRWQRGDTFICYVMHEALHNHYTQESLSHSP
modifications: N-terminal pyroglutamate (PyroQ) observed by intact mass
In the case of B1, the Kd is reported as 0.213 nM, the koff is reported as 6.24e-05 s⁻¹ and the kon is reported as 293000 M⁻¹ s⁻¹.
